Data as given in the supplement of paper PMC9170038.

Test system: MS2 coat protein
Experiment: apparent KD of MS2 coat protein; designed switch direction (-1 OFF switch, 1 ON switch): -1; higher = weaker reporter binding
Procedure, shortened: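 The reported apparent KD is a per-design median over clusters, from curve fits of normalised cluster fluorescence. Protein titrations used SNAP-549-labelled MS2 coat protein, doubled from 0.7 or 1.5 nM to 3 µM, in Tris-HCl pH 7.5 buffer with KCl, MgCl2, BSA, DTT, tRNA and Tween-20, with no input, 200 uM small-molecule ligand, or an oligonucleotide input. The RNA switches were transcribed on Illumina chips by stalled E. coli RNA polymerase.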

[1] = Eterna round: R95, input ligand: microRNA oligo, concentration not stated
[2] = Eterna round: R95, input ligand: FMN 200 uM
[3] = Eterna round: R95, input ligand: none
[4] = input ligand: microRNA oligo, concentration not stated

Sequence | apparent KD of MS2 coat protein [1] [nM] | apparent KD of MS2 coat protein (input ligand: FMN 200 uM) [nM] | apparent KD of MS2 coat protein (input ligand: none) [nM] | apparent KD of MS2 coat protein [2] [nM] | apparent KD of MS2 coat protein [3] [nM] | apparent KD of MS2 coat protein [4] [nM]
AUAUAAAUAUAGGAUAUCGAAUUUAUUAAUUAUCGAGAAGGAUAAACAUGAGGAUCACCCAUGUGGUAUCAUGG [Mat - Exclusion 6 - JL Mod - D40] (puzzle: Exclusion 6) | 270 | – | – | – | – | –
AUAAUGUGAGGAUAUCAGUCGACUAGCUGCGGCUAGUCGACUGAGAAGGUACAUGAGGAUCACCCAUGUAGAUC [E4/20-A3] (Eterna round: R97, puzzle: Exclusion 4) | – | 77.9 | 29.4 | – | – | –
UUUAAUUUUUUUUUUUUACAAGCUUUUUGCUCGUCUUAUACAUGAGGAUCACCCAUGUGGGUGGAGAGUAAAUUAUC [JMF 60] (puzzle: Sensor v3, turn-off variant 2) | 47.1 | – | – | 45.4 | 56 | –
GGGCGUGAAGGAUAUACAUGAGGAUCACCCAUGUGGGAGGAGAGUGGUGAGGAGGCUGGUAGAAGGUCAGGAUG [JR_Exclusion3_Sub007] (puzzle: Exclusion 3) | 42.6 | – | – | – | – | –
ACUUGUGUUGAGGAUAUGCGCCGGCUCGCUGGCGCAGAAGGCGGCACAUGAGGAUCACCCAUGUCAGUUCGCGC [salish99_ex6_r004_001] (Eterna round: R97, puzzle: Exclusion 6) | – | 138 | 16.8 | – | – | –
GAGUGACAUGAGGAUCACCCAUGUGAGGAUAUCGGACGGACCUAGUUAACAUCCGCCGCGAGAAGGCACAUCGG [Exclusion 1 V23] (puzzle: Exclusion 1) | 136 | – | – | – | – | –
AGUGUGUGGCAGGAUAUUCUGUUGAUUAGGACAGAAGAAGGGUCUACAUGAGGAUCACCCAUGUAAGCGGUUGA [Ex6 #36] (Eterna round: R97, puzzle: Exclusion 6) | – | 275 | 268 | – | – | –
UAUUUGCAAGCGAGAUCCCACAUGAGGAUCACCCAUGUUCUUUGAAAGUACAGAAUUACUGUACAAGCUCGUCUUAU [Winner reversed engineered 31] (Eterna round: R97, puzzle: Sensor, turn-off variant 1) | – | 62.6 | 73.4 | – | – | –
UGUCUUCAUAUCACAUGAGGAUCACCCAUGUUAUUCAUCUCGUAGGAUAUCGAGGUUUAUUAUUUCGAGAAGGACGUAUUGUUU [JR_ExcNG3_Sub076] (Eterna round: R96, puzzle: Exclusion NG 3) | – | 199 | 148 | – | – | 112
UUUAAUCGUGACAUGGGUGACAUGAGGAUCACCCAUGUCACAAGCUUUUUGCUCGUCUUAUAAUUAACCCAUGUCAC [LRO Sensor-off var1-11 mod of Stov1-13-A1 by Brourd] (Eterna round: R97, puzzle: Sensor, turn-off variant 1) | – | 15.1 | 15.6 | – | – | –
AAUCCACAUGAGGAUCACCCAUGUGAGGAUAUGAUACUAUGUACUUCGGUACAUAGUAUCAGAAGGCACAUGAA [Ex1-3: 50] (puzzle: Exclusion 1) | 64.2 | – | – | 118 | 71.6 | –
AGAAUGGUACAGGAUAUAGCAUCUAACUGCAUGCUAGAAGGGUAUACAUGAGGAUCACCCAUGUAGUCGUGGAU [Eternabot (L1) Solution 13] (Eterna round: R97, puzzle: Exclusion 6) | – | 55.2 | 37.4 | – | – | –
ACCUCACAUGAGGAUCACCCAUGUCAGGAUAUCUUUUAUUACAGCAAUCCUGUCGCUGAGAGAAGGGACAUUAA [EX1 #25] (Eterna round: R97, puzzle: Exclusion 1) | – | 33.8 | 28.1 | – | – | –
GAGUGACAUGAGGAUCACCCAUGUGAGGAUAUCCGAUGGACCAAAUUAACAAUAGAAGGGAGAAGGCGCAUAAA [Exclusion 1 V8] (puzzle: Exclusion 1) | 152 | – | – | 133 | 158 | –
AUAAUACAUGAGGAUCACCCAUGUGAGGAUAUACGACUCCAACCAAACUGCUUGGACCGUAGAAGGCACAAGGG [Exclusion 1 (MOD1 Esqu)] (Eterna round: R97, puzzle: Exclusion 1) | – | 22.7 | 589 | – | – | –
AUUGUUUAUGUAGGAUAUGCCUGGCGUGCCUUCGCAGAAGGACAUGAGGAUCACCCAUGUAUUGCGGUCUGCGUUCAGAUCGCA [salish99_ExNG1_r4_024] (Eterna round: R96, puzzle: Exclusion NG 1) | – | – | – | – | – | 45.2
UUUAAUUUUUUUUUUUUACAAGCUUUUUGCUCGUCUUAUACAUGAGGAUCACCCAUGUGGAUGGAAGAUAAAUUAUC [JMF 9] (puzzle: Sensor v3, turn-off variant 2) | 18.6 | – | – | 16.2 | 16.5 | –
UUUUUAUAUGAAGGAUAUACUUAACAUGAGGAUCACCCAUGUGGUGUUGUGAGUGAGUGAGUUUAGUAGAAGGUCAAGUAUUAU [JMF's solution 38] (Eterna round: R96, puzzle: Exclusion NG 2) | – | 776 | 464 | – | – | 265
